Source: patent publication US20110124842A1 (priority 2003, published 2011)
Bridges are numbered along the chain shown (N, C = ends). Where no end group is shown, it is not given here. [ ]: non-standard residue; d: D form. code O = not defined here; Orn = NCCC[C@H](N)C(=O)O; Aib = CC(C)(N)C(=O)O

Legend:
IgG 4E10 = assay: Competitive ELISA (IC50): peptide competes with biotinylated 4E10-epitope peptide for IgG 4E10; assay type: binding, human; details: Table 6, constrained analogs; 4E10 binding; read-out: IC50
Method: IC50, were determined by competitive ELISA using a constant concentration of biotinylated peptide and IgG with a variable concentration of gp41 peptides. Microwells were coated overnight at 4° C. with 50 μl PBS containing neutravidin (Pierce; 4 μg/ml). […] A mixture of a biotinylated 4E10-epitope peptide, […](biotin)-NH2 (SEQ ID NO: 88) (20 nM), IgG 4E10 (0.2 nM), and the competing peptide analog (3-fold dilution series starting at 10 μM) in 0.4% non-fat dry milk, 0.02% Tween and PBS was incubated in a separate 96-well plate at 37° C. for 2 hours. After washing the blocked plate, the mixture of 4E10, biotinylated peptide and competing peptide was added to the wells. After 20 minutes at room temperature, the Wells were washed five times, and a 1:500 dilution of goat anti-human IgG F(ab′)2 HRP conjugate (Pierce) was added. Following incubation at RT for 40 minutes, the wells were washed five times, and developed by adding 50 μl of TMB solution (Pierce) according to the manufacturer's instructions. After ˜20 minutes, wells containing TMB solution were stopped by adding 50 μl of H2SO4 (2M) and the O.D. at 450 nm was read on a microplate reader (Molecular Devices). The concentration of competitor peptide corresponding to a half-maximal signal (IC50) was determined by interpolation of the resulting binding curve. Each peptide competitor was tested in duplicate in at least two separate experiments.
IC50s were determined by competitive ELISA using a constant concentration of biotinylated peptide and IgG with a variable concentration of gp41 peptides. Microwells were coated overnight at 4° C. with 50 μl PBS containing neutravidin (Pierce; 4 μg/ml). […] Meanwhile, a mixture of a biotinylated 4E10-peptide epitope, […](biotin)-NH2 (SEQ ID NO: 88), (20 nM), IgG 4E10 (0.2 nM), and the competing peptide analogue (3-fold dilution series starting at 10 μM) in 0.4% NFDM, 0.02% Tween and PBS was incubated in a separate 96-well plate at 37° C. for 2 h. After washing the blocked plate, the mixture of 4E10, biotinylated peptide and competing peptide was added to the wells. After 20 min at room temperature, the wells were washed five times, and a 1:500 dilution of goat anti-human IgG F(ab′)2 HRP conjugate (Pierce) was added. Following incubation at RT for 40 min, the wells were washed five times, and developed by adding 50 μl of H2SO4 (2 M), and the O.D. at 450 nm was read on a microplate reader (Molecular Devices). The concentration of competitor peptide corresponding to a half-maximal signal (IC50) was determined by interpolation of the resulting binding curve. Each peptide competitor was tested in duplicate in at least two separate experiments.

Fab 4E10 [1] = assay: Surface plasmon resonance (Biacore 2000), Fab 4E10 on CM5 chip; assay type: binding, human; details: Table 6, constrained analogs; 4E10 binding; read-out: Kd
Sequence of Fab 4E10 (heavy, as listed by the source): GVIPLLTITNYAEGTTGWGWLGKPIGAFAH
Method: The affinitiefs of the peptide analogs for 4E10 were also measured by surface plasmon resonance. Surface plasmon resonance experiments were performed using a Biacore 2000 instrument (Uppsala, Sweden). Around 2,200 response units (RU) of Fab 4E10 were coated on CM5 chips. The carboxyl groups on the chip were activated with 1-ethyl-3-(3-dimethylaminopropyl)carbodiimide hydrochloride (EDC) and N-hydroxysuccinimide (NHS). Fifty micrograms of Fab were diluted in 10 mM sodium acetate pH 4.5; a flow rate of 5 μl/min was used. Unreacted carboxyl groups were blocked with 1M ethanolamine at pH 8.5. The control was treated in the same fashion without any antibody present. Different amounts of free peptides were then passed over the surfaces at 30 or 50 μl/min for 2 min. Regeneration was done in HPS-EP buffer, 0.25 NaCl (Biacore) in 10 minutes. The amount of salt was increased compared to the commercial buffer to reduce the non-specific binding. For data evaluation, the BIAevaluation software was used. RI and Rmax were controlled, double referencing were done (0 concentration and start point). Analyses were performed to achieve the best curve fitting and small chi^2 (<1).
Surface plasmon resonance experiments were performed using a Biacore 2000 instrument (Uppsala, Sweden).
Chip preparation: around 2,200 response units (RU) of Fab 4E10 were coated on CM5 chips. The carboxyl groups on the chip were activated with 1-ethyl-3-(3-dimethylaminopropyl) carbodiimide hydrochloride (EDC) and N-hydroxysuccinimide (NHS). Fifty micrograms of Fab was diluted in 10 mM sodium acetate pH 4.5; a flow rate of 5 μl/min was used. Unreacted carboxyl groups were blocked with 1M ethanolamine at pH 8.5. The control was treated in the same fashion without any antibody present.
Experiment: different amounts of free peptides were then passed over the surfaces at 30 or 50 μl/min for 2 min. Regeneration was done in HPS-EP buffer, 0.25 NaCl (Biacore) in 10 min. The amount of salt was increased compared to the commercial buffer to reduce the non-specific binding.
Data evaluation: the BIAevaluation software was used. RI and Rmax were controlled, double referencing were done (0 concentration and start point). Analyses were performed to achieve the best curve fitting and small chi^2 (<1).

[2] = biological target: recombinant IgG1(kappa) 4E10; assay: competitive ELISA: peptide against biotinylated …(biotin)-NH2 for IgG 4E10
Sequence of recombinant IgG1(kappa) 4E10 (heavy, as listed by the source): as above

[3] = biological target: recombinant IgG1(kappa) 4E10; assay: competitive ELISA
Fab 4E10 [4] = assay: SPR (Biacore 2000), Fab 4E10 on CM5 chip, peptide in flow

**Q.** Which results are given for “c(CWFO)ITNWLWKKKK-NH2 (CWF[code O]ITNWLWKKKK-NH2; bridge 1-4; reading uncertain; also: printed as c(CWFO)ITNWLWKKKK-NH2) [Peptide 74-2]”?
**A.** IC50 (IgG 4E10): 230 nM; Kd (Fab 4E10 [1]): 276 nM

**Q.** With NWFDITNWLWRR-NH2 [peptide 44-1, …-NH2] as the molecule, how does the IC50 [2] read?
**A.** Its IC50 is 600 nM.

B1: peptide 102-1, …BKBK-NH2 (peptide)
peptide: NWFDITNWLWK[Aib]K[Aib]K-NH2
modifications: N-terminus assumed
SMILES: CC[C@H](C)[C@H](NC(=O)[C@H](CC(=O)O)NC(=O)[C@H](Cc1ccccc1)NC(=O)[C@H](Cc1c[nH]c2ccccc12)NC(=O)[C@@H](N)CC(N)=O)C(=O)N[C@H](C(=O)N[C@@H](CC(N)=O)C(=O)N[C@@H](Cc1c[nH]c2ccccc12)C(=O)N[C@@H](CC(C)C)C(=O)N[C@@H](Cc1c[nH]c2ccccc12)C(=O)N[C@@H](CCCCN)C(=O)NC(C)(C)C(=O)N[C@@H](CCCCN)C(=O)NC(C)(C)C(=O)N[C@@H](CCCCN)C(N)=O)[C@@H](C)O
**Q.** For B1, which IC50 [2] is on record?
**A.** The IC50 was 10 nM.

B2: peptide 33-1, NWFDITN-Aib-LWRR-NH2 (peptide)
peptide: NWFDITN[Aib]LWRR-NH2
modifications: N-terminus assumed
SMILES: CC[C@H](C)[C@H](NC(=O)[C@H](CC(=O)O)NC(=O)[C@H](Cc1ccccc1)NC(=O)[C@H](Cc1c[nH]c2ccccc12)NC(=O)[C@@H](N)CC(N)=O)C(=O)N[C@H](C(=O)N[C@@H](CC(N)=O)C(=O)NC(C)(C)C(=O)N[C@@H](CC(C)C)C(=O)N[C@@H](Cc1c[nH]c2ccccc12)C(=O)N[C@@H](CCCNC(=N)N)C(=O)N[C@@H](CCCNC(=N)N)C(N)=O)[C@@H](C)O
**Q.** Which fold increase of binding affinity over its control peptide 44-1 [3] does the source give for B2 here?
**A.** The fold increase of binding affinity over its control peptide 44-1 was 3 fold.

**Q.** What about the Kd (Fab 4E10 [4]) of the same molecule?
**A.** Its Kd is 302 nM.

**Q.** And the koff (Fab 4E10 [4])?
**A.** The koff was 0.13 s⁻¹.

**Q.** And the kon (Fab 4E10 [4])?
**A.** The kon was 431000 M⁻¹ s⁻¹.

**Q.** What about the IC50 [2] of the same molecule?
**A.** Its IC50 is 100 to 400 nM.

**Q.** For WNWFDITNWLWKKKK-NH2 [peptide 84-2, …-NH2], which IC50 [2] is on record?
**A.** The IC50 was 120 nM.

**Q.** With KGWNWFDITNWGK (not fully specified) [peptide KGND (…)] as the molecule, how does the IC50 [2] read?
**A.** The IC50 was > 10000 nM.

B3: peptide 104-2, NWFc(CITO)WLWKKKK-NH2 (peptide)
peptide: NWFCIT[Orn]WLWKKKK-NH2
modifications: bridge 4-7; not fully specified (bridges); printed as peptide 104-2, NWFc(CITO)WLWKKKK-NH2
**Q.** With B3 as the molecule, how does the fold increase of affinity over its control peptide 104-1 [3] read?
**A.** The fold increase of affinity over its control peptide 104-1 was 4 fold.

**Q.** And the Kd (Fab 4E10 [4])?
**A.** The Kd was 17 nM.

**Q.** And the koff (Fab 4E10 [4])?
**A.** Its koff is 0.0034 s⁻¹.

**Q.** What about the kon (Fab 4E10 [4]) of the same molecule?
**A.** Its kon is 202000 M⁻¹ s⁻¹.

**Q.** What about the IC50 [2] of the same molecule?
**A.** The IC50 was 10 nM.

**Q.** NWFDITNWLWYIKXKXKK (B = Aib at positions 14 and 16; C-terminal amide) [peptide 119, …BKBKK-NH2] was tested. Which IC50 [2] did it give?
**A.** The IC50 was 10 nM.

B4: peptide 102-2, KKB…BKBK-NH2 (peptide)
peptide: KK[Aib]NWFDITNWLWK[Aib]K[Aib]K-NH2
modifications: N-terminus assumed
SMILES: CC[C@H](C)[C@H](NC(=O)[C@H](CC(=O)O)NC(=O)[C@H](Cc1ccccc1)NC(=O)[C@H](Cc1c[nH]c2ccccc12)NC(=O)[C@H](CC(N)=O)NC(=O)C(C)(C)NC(=O)[C@H](CCCCN)NC(=O)[C@@H](N)CCCCN)C(=O)N[C@H](C(=O)N[C@@H](CC(N)=O)C(=O)N[C@@H](Cc1c[nH]c2ccccc12)C(=O)N[C@@H](CC(C)C)C(=O)N[C@@H](Cc1c[nH]c2ccccc12)C(=O)N[C@@H](CCCCN)C(=O)NC(C)(C)C(=O)N[C@@H](CCCCN)C(=O)NC(C)(C)C(=O)N[C@@H](CCCCN)C(N)=O)[C@@H](C)O
**Q.** B4 was tested. Which IC50 [2] did it give?
**A.** Its IC50 is 10 nM.

**Q.** NWFCIT[Orn]WLWKKKK-NH2 (not fully specified; printed as NWFCITOWLWKKKK-NH2) [peptide 104-1, NWFCITOWLWKKKK-NH2 (acyclic control)] was tested. Which IC50 [2] did it give?
**A.** The IC50 was 40 nM.

**Q.** What does the source list for CWFXITNWLWKKKK (cyclic thioether between Cys 1 and ornithine (O) 4; C-terminal amide) [peptide 74-2, c(CWFO)…-NH2]?
**A.** Kd (Fab 4E10 [4]): 276 nM; IC50 [2]: 230 nM
